Laboratory results: the supplement of paper PMC10065799, “High-throughput profiling of sequence recognition by tyrosine kinases and SH2 domains using bacterial peptide display” (eLife, 2023)

system: Fer (mouse); experiment: phosphorylation enrichment, bacterial display (enrichment ratio); higher = better substrate or ligand; peptides without Tyr show the background
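Also: 11-residue human phosphosite peptides and single-mutation variants displayed on the E. coli surface, counted by deep sequencing, each peptide's frequency after selection divided by its frequency in the unselected input library; frequency after pTyr selection over input frequency; kinase dosed for 20-30% of maximal phosphorylation in three min.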

Sequence	phosphorylation enrichment
KWRGQYDVAIR [BTK_Y425_K430R]	0.512
LSPNMYNSKFW [TARSL2_Y457_L461F]	0.808
EEGRVYVYHLS [ITGAE_Y549_R552H]	0.756
FHLLPYTIRAM [PARS2_Y93_V95I_YF]	0.454
NNTFLYQLVFD [EXO1_Y284]	4.67
PIYLYYLMDLS [ITGB2_Y131_D128Y]	4.54
DAVCYYRMENA [NPHS2_Y195_I192V]	0.704
PYSNSYENSLI [EPOR_Y489_P488S]	0.754
FEDALYTVLHR [UNC13D_Y61_YF]	11.4
ARLEYYENEKK [IRS1_Y47]	0.491
WAAQRYGRELR [BAD_Y110]	0.398
FENGEYIVRQG [PRKG1_Y247_I249V_YF]	0.523
EQKRYYNAMKK [SCN5A_Y1495_K1493R]	0.399
RFLTRYIFNRE [HLA-DQB1_Y62_V59L_YF]	0.897
AASTDYYKRGD [PDHA1_Y242]	0.515
RIFDYYSARKA [STOX1_Y858]	0.7
CTTILYNFMCN [TP53_Y234_H233L_YF]	0.87

Sequence	phosphorylation enrichment
KQFWRYFAGNL [SLC25A4_Y112]	0.488
RVLHNYLVWCV [ECEL1_Y400_R404C]	0.647
ADIETYLLEKS [MYH7_Y266]	0.431
RLLVVYPWTKR [HBB_Y36_Q40K]	0.45
SGRPGYCLGTR [SCO1_Y60]	0.407
SVLVPYEPPEV [TP53_Y220_V217L]	0.63
DEDYLYREELA [POR_Y575]	0.61
SNSATYSGSVA [PDLIM5_Y382]	0.392
QLHEHYKIHKE [NSMAF_Y626]	0.563
EDGRLYAVKCS [PKMYT1_Y136_R140C]	0.529
GGSDRYGSLRP [MYLK_Y846]	0.332
TWNPKYTLRSH [STRN3_Y474]	0.378
IRRQGYSHRIL [MYO3B_Y993]	0.43
PRQRRYVYYYS [PTEN_Y174_S170R]	0.904
GREEFYVHYVG [KAT8_Y90]	0.428
VSSPKYGGDDE [TMCC2_Y473_S475G]	0.451

target: Fyn (UniProt P06241); experiment: as above
Sequence (P06241 whole entry, looked up): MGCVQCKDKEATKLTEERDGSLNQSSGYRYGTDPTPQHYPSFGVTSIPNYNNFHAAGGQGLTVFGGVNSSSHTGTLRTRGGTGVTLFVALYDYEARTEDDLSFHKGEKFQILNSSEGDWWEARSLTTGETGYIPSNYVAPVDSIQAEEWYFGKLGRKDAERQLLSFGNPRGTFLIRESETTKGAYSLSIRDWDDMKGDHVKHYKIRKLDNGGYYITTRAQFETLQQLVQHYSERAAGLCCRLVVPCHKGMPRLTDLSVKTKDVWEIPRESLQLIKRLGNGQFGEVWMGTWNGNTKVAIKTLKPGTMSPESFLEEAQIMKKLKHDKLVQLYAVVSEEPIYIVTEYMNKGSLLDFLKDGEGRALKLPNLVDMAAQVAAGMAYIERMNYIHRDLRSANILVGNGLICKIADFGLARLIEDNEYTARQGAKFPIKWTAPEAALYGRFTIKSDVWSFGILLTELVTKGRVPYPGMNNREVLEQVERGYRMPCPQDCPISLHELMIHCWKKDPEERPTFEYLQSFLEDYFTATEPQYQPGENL

Sequence	phosphorylation enrichment
KWRGQYDVAIR [BTK_Y425_K430R]	0.446
LSPNMYNSKFW [TARSL2_Y457_L461F]	0.911
EEGRVYVYHLS [ITGAE_Y549_R552H]	0.64
FHLLPYTIRAM [PARS2_Y93_V95I_YF]	0.5
NNTFLYQLVFD [EXO1_Y284]	1.7
PIYLYYLMDLS [ITGB2_Y131_D128Y]	5.41
DAVCYYRMENA [NPHS2_Y195_I192V]	1.34
PYSNSYENSLI [EPOR_Y489_P488S]	0.699
FEDALYTVLHR [UNC13D_Y61_YF]	9.12
ARLEYYENEKK [IRS1_Y47]	0.595
WAAQRYGRELR [BAD_Y110]	0.445
FENGEYIVRQG [PRKG1_Y247_I249V_YF]	0.468
EQKRYYNAMKK [SCN5A_Y1495_K1493R]	0.457
RFLTRYIFNRE [HLA-DQB1_Y62_V59L_YF]	0.606
AASTDYYKRGD [PDHA1_Y242]	0.597
RIFDYYSARKA [STOX1_Y858]	0.713
CTTILYNFMCN [TP53_Y234_H233L_YF]	1.03

Sequence	phosphorylation enrichment
KQFWRYFAGNL [SLC25A4_Y112]	0.32
RVLHNYLVWCV [ECEL1_Y400_R404C]	0.535
ADIETYLLEKS [MYH7_Y266]	0.554
RLLVVYPWTKR [HBB_Y36_Q40K]	0.485
SGRPGYCLGTR [SCO1_Y60]	0.474
SVLVPYEPPEV [TP53_Y220_V217L]	0.555
DEDYLYREELA [POR_Y575]	0.579
SNSATYSGSVA [PDLIM5_Y382]	0.561
QLHEHYKIHKE [NSMAF_Y626]	0.697
EDGRLYAVKCS [PKMYT1_Y136_R140C]	0.589
GGSDRYGSLRP [MYLK_Y846]	0.385
TWNPKYTLRSH [STRN3_Y474]	0.426
IRRQGYSHRIL [MYO3B_Y993]	0.465
PRQRRYVYYYS [PTEN_Y174_S170R]	0.882
GREEFYVHYVG [KAT8_Y90]	0.518
VSSPKYGGDDE [TMCC2_Y473_S475G]	0.535

target: FGFR3 (UniProt P22607); experiment: as above
Sequence (P22607 whole entry, looked up): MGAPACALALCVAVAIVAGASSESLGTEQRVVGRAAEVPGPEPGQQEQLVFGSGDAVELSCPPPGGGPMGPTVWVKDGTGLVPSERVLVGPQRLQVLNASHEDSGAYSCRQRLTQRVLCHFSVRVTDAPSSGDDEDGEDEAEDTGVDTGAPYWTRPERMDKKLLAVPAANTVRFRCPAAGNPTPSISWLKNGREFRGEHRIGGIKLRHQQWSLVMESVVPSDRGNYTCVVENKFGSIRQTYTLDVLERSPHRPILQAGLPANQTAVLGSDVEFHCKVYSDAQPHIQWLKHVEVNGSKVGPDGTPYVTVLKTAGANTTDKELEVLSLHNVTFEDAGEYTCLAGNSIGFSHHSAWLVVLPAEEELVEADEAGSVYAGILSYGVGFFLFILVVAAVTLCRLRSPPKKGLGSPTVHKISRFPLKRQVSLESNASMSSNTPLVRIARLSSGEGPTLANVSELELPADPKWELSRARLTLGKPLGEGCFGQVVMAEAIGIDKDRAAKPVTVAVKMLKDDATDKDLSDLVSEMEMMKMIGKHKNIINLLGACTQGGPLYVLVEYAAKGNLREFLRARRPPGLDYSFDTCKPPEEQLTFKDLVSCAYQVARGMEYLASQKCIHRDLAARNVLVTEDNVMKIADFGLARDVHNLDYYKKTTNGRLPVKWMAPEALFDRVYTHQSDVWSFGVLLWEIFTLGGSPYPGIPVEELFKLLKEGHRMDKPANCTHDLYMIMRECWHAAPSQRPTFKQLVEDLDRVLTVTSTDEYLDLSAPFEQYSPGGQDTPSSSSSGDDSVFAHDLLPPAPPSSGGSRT

Sequence	phosphorylation enrichment
KWRGQYDVAIR [BTK_Y425_K430R]	0.533
LSPNMYNSKFW [TARSL2_Y457_L461F]	0.924
EEGRVYVYHLS [ITGAE_Y549_R552H]	0.75
FHLLPYTIRAM [PARS2_Y93_V95I_YF]	0.533
NNTFLYQLVFD [EXO1_Y284]	1.72
PIYLYYLMDLS [ITGB2_Y131_D128Y]	13.9
DAVCYYRMENA [NPHS2_Y195_I192V]	6.2
PYSNSYENSLI [EPOR_Y489_P488S]	0.854
FEDALYTVLHR [UNC13D_Y61_YF]	2.38
ARLEYYENEKK [IRS1_Y47]	0.733
WAAQRYGRELR [BAD_Y110]	0.396
FENGEYIVRQG [PRKG1_Y247_I249V_YF]	0.922
EQKRYYNAMKK [SCN5A_Y1495_K1493R]	0.465
RFLTRYIFNRE [HLA-DQB1_Y62_V59L_YF]	0.674
AASTDYYKRGD [PDHA1_Y242]	0.586
RIFDYYSARKA [STOX1_Y858]	0.612
CTTILYNFMCN [TP53_Y234_H233L_YF]	0.806

Sequence	phosphorylation enrichment
KQFWRYFAGNL [SLC25A4_Y112]	0.598
RVLHNYLVWCV [ECEL1_Y400_R404C]	1.02
ADIETYLLEKS [MYH7_Y266]	0.635
RLLVVYPWTKR [HBB_Y36_Q40K]	0.613
SGRPGYCLGTR [SCO1_Y60]	0.563
SVLVPYEPPEV [TP53_Y220_V217L]	0.899
DEDYLYREELA [POR_Y575]	1.18
SNSATYSGSVA [PDLIM5_Y382]	0.483
QLHEHYKIHKE [NSMAF_Y626]	0.772
EDGRLYAVKCS [PKMYT1_Y136_R140C]	0.66
GGSDRYGSLRP [MYLK_Y846]	0.407
TWNPKYTLRSH [STRN3_Y474]	0.54
IRRQGYSHRIL [MYO3B_Y993]	0.469
PRQRRYVYYYS [PTEN_Y174_S170R]	0.929
GREEFYVHYVG [KAT8_Y90]	1.02
VSSPKYGGDDE [TMCC2_Y473_S475G]	0.573

target: EPHB2 (UniProt P29323); experiment: as above
Sequence (P29323 whole entry, looked up): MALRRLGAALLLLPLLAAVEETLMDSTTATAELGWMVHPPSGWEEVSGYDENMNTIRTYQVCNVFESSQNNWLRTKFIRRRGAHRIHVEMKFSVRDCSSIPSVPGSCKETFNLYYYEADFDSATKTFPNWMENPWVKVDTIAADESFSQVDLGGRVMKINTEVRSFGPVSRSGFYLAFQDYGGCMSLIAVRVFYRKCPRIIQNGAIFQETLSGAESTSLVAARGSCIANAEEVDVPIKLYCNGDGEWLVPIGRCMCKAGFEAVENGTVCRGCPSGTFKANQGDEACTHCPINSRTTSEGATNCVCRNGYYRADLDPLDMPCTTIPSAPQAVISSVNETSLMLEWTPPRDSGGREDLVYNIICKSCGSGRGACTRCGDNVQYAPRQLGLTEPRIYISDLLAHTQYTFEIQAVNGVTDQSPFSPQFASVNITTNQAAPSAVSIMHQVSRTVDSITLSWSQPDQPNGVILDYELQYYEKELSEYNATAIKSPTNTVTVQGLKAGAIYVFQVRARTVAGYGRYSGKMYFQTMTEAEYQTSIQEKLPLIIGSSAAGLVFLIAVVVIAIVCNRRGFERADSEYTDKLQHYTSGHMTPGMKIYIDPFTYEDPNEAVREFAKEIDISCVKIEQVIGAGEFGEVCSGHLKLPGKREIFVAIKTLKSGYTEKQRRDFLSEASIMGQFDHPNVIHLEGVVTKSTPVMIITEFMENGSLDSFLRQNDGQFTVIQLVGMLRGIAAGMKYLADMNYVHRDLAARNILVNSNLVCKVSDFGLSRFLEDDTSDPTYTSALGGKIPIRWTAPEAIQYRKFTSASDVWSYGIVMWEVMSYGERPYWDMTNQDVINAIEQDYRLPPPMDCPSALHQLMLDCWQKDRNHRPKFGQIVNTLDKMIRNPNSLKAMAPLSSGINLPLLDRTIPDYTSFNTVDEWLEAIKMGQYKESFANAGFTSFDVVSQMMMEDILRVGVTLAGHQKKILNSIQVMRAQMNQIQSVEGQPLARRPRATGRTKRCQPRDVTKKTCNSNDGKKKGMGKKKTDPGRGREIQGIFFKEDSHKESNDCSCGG

Sequence	phosphorylation enrichment
KWRGQYDVAIR [BTK_Y425_K430R]	0.454
LSPNMYNSKFW [TARSL2_Y457_L461F]	1.1
EEGRVYVYHLS [ITGAE_Y549_R552H]	0.491
FHLLPYTIRAM [PARS2_Y93_V95I_YF]	0.588
NNTFLYQLVFD [EXO1_Y284]	4.11
PIYLYYLMDLS [ITGB2_Y131_D128Y]	6.17
DAVCYYRMENA [NPHS2_Y195_I192V]	0.588
PYSNSYENSLI [EPOR_Y489_P488S]	0.433
FEDALYTVLHR [UNC13D_Y61_YF]	13.8
ARLEYYENEKK [IRS1_Y47]	0.506
WAAQRYGRELR [BAD_Y110]	0.433
FENGEYIVRQG [PRKG1_Y247_I249V_YF]	0.641
EQKRYYNAMKK [SCN5A_Y1495_K1493R]	0.317
RFLTRYIFNRE [HLA-DQB1_Y62_V59L_YF]	0.567
AASTDYYKRGD [PDHA1_Y242]	0.45
RIFDYYSARKA [STOX1_Y858]	0.656
CTTILYNFMCN [TP53_Y234_H233L_YF]	0.622

Sequence	phosphorylation enrichment
KQFWRYFAGNL [SLC25A4_Y112]	0.53
RVLHNYLVWCV [ECEL1_Y400_R404C]	0.752
ADIETYLLEKS [MYH7_Y266]	0.582
RLLVVYPWTKR [HBB_Y36_Q40K]	0.678
SGRPGYCLGTR [SCO1_Y60]	0.51
SVLVPYEPPEV [TP53_Y220_V217L]	0.757
DEDYLYREELA [POR_Y575]	0.647
SNSATYSGSVA [PDLIM5_Y382]	0.497
QLHEHYKIHKE [NSMAF_Y626]	0.597
EDGRLYAVKCS [PKMYT1_Y136_R140C]	0.609
GGSDRYGSLRP [MYLK_Y846]	0.418
TWNPKYTLRSH [STRN3_Y474]	0.468
IRRQGYSHRIL [MYO3B_Y993]	0.568
PRQRRYVYYYS [PTEN_Y174_S170R]	1.02
GREEFYVHYVG [KAT8_Y90]	0.67
VSSPKYGGDDE [TMCC2_Y473_S475G]	0.379
